# Results as given in US20230129812A1, “COMPOSITIONS AND METHODS FOR TREATING PULMONARY HYPERTENSION” (Acceleron Pharma Inc., priority 2020, published 2023).
# Entries after “also recorded” stand apart in the source; their conditions may differ.
# T1: BMP10 (Homo sapiens, UniProt O95393)
# T1 sequence (O95393 317-424): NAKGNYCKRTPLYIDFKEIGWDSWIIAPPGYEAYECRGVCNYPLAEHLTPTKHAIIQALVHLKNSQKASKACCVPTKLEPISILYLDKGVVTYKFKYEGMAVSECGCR
# T2: BMP9 (Homo sapiens, UniProt Q9UK05)
# T2 sequence (Q9UK05 320-429): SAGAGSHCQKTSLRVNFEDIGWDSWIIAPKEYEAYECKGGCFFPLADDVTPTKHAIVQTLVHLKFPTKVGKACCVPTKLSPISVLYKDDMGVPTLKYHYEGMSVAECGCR
# T3: GDF11 (Homo sapiens, UniProt O95390)
# T3 sequence (O95390 299-407): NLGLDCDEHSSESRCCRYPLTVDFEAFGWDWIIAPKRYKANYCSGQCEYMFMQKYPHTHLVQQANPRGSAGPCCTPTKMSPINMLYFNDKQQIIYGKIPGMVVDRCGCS
# T4: GDF8 (Homo sapiens, UniProt O14793)
# T4 sequence (O14793 267-375): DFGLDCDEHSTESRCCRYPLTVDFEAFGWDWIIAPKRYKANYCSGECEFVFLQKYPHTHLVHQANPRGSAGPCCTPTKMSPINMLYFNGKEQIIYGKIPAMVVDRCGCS
# T5: activin B (Homo sapiens, UniProt P09529)
# T5 sequence (P09529 293-407): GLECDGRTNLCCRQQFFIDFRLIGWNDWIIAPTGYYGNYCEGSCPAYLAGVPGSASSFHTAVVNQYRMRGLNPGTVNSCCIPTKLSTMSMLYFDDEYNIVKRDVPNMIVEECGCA
# B1: ALK4-Fc:ActRIIB-Fc heterodimer: heteromeric complex of extracellular domains of human ActRIIB and human ALK4, each separately fused to an Fc domain with a linker (protein)
# chain 1: GRGEAETRECIYYNANWELERTNQSGLERCEGEQDKRLHCYASWRNSSGTIELVKKGCWLDDFNCYDRQECVATEENPQVYFCCCEGNFCNERFTHLPEAGGPEVTYEPPPTAPTGGGTHTCPPCPAPELLGGPSVFLFPPKPKDTLMISRTPEVTCVVVDVSHEDPEVKFNWYVDGVEVHNAKTKPREEQYNSTYRVVSVLTVLHQDWLNGKEYKCKVSNKALPAPIEKTISKAKGQPREPQVYTLPPSRKEMTKNQVSLTCLVKGFYPSDIAVEWESNGQPENNYKTTPPVLKSDGSFFLYSKLTVDKSRWQQGNVFSCSVMHEALHNHYTQKSLSLSPGK
# chain 2: SGPRGVQALLCACTSCLQANYTCETDGACMVSIFNLDGMEHHVRTCIPKVELVPAGKPFYCLSSEDLRNTHCCYTDYCNRIDLRVPSGHLKEPEHPSMWGPVETGGGTHTCPPCPAPELLGGPSVFLFPPKPKDTLMISRTPEVTCVVVDVSHEDPEVKFNWYVDGVEVHNAKTKPREEQYNSTYRVVSVLTVLHQDWLNGKEYKCKVSNKALPAPIEKTISKAKGQPREPQVYTLPPSREEMTKNQVSLTCLVKGFYPSDIAVEWESNGQPENNYDTTPPVLDSDGSFFLYSDLTVDKSRWQQGNVFSCSVMHEALHNHYTQKSLSLSPG
# Key:
# [1] = biological target: T1, BMP10; assay: Biacore ligand binding profile, ALK4-Fc:ActRIIB-Fc heterodimer vs homodimers, anti-Fc capture (Example 13, Table 13)
# [2] = biological target: T2, BMP9; assay: as above
# [3] = biological target: T3, GDF11; assay: as above
# [4] = biological target: T4, GDF8; assay: as above
# [5] = biological target: T5, activin B; assay: as above
# [6] = system: rat model of pulmonary arterial hypertension (PAH), monocrotaline-induced; assay: Monocrotaline (MCT) rat model of pulmonary arterial hypertension; type: in vivo, Sprague Dawley rats; conditions: MCT rats, compared to monocrotaline treated rats (vehicle)
# Protocol: The effects of an ActRIIA-mFc fusion protein (ActRIIA-mFc homodimer as described in Example 1), an ALK4-Fc-ActRIIB-Fc heterodimer (as described in Examples 12 and 13), and sildenafil (a phosphodiesterase-5 inhibitor approved for the treatment of PAH) were examined in a rat model of pulmonary arterial hypertension (PAH). In this model, Sprague Dawley rats received a […] injection of monocrotaline (MCT) to induce PAH 24 hours prior to start of therapy.
# Rats were separated into different treatment groups (10 mice per group): 1) treatment with MCT (60 mg/kg administered i.p. as a single dose at day 1 of study) and Tris buffered saline (i.p. as 1 ml/kg, every three days) (vehicle treatment group), 2) treatment with an ActRIIA-mFc polypeptide (10 mg/kg administered i.p. every three days) and MCT (60 mg/kg administered i.p. as a single dose at day 1 of study), 3) treatment with an ALK4-Fc:ActRIIB-Fc heterodimer (10 mg/kg administered i.p. every three days) and MCT (60 mg/kg administered i.p. as a single dose at day 1 of study), 4) treatment with sildenafil (30 mg/kg administered orally twice daily) and MCT (60 mg/kg administered i.p. as a single dose at day 1 of study), and 5) control rats (Tris buffered saline administered i.p. as 1 ml/kg, every three days). Rats were treated for 28 days. Body weights were recorded prior to first dose on Day 1 and then weekly throughout the study.
# On day 28, rats were anesthetized by an intraperitoneal injection of ketamine/xylazine (80/10 mg/kg). An incision was made in the neck, and a jugular vein was isolated and ligated anteriorly. A fluid-filled pressure catheter was introduced into the right jugular vein to measure pulmonary artery pressure (PAP). Another incision was made in the inguinal region, and femoral artery was isolated and ligated anteriorly. […] Mean arterial pressure and right PAP were monitored using the Notocord HEM (Croissy sur Seine, Frnace) v3.5 data capture system for approximately 5-10 minutes until stable measurements were obtained. During the measurements, rats were maintained at approximately 37° C. on a heating pad and body temperature was monitored throughout the procedure with a rectal temperature probe. […] Hypertrophy was assessed, in part, by calculating RV/LV+S. The lungs were also weighed.
# Similar trends were observed on vessel muscularity based on histopathologic scoring. […] Pulmonary arterioles from vehicle treated rats were determined to be 62.3% completely muscularized, 36.4% partially muscularized, and 1.4% non-muscularized. […] Histopathological scoring of smooth muscle hypertrophy of pulmonary arterioles were also recorded as follows: 0 (normal), 1 (minimal), 2 (mild), 3 (moderate), or 4 (marked).
molecule,measurement,setting,value
B1,BMP10 binding,[1]; Example 13,substantially reduced binding
same,ka,"[1]; ligand BMP10, Table 13",5.6e+07 M⁻¹ s⁻¹
same,kd,"[1]; ligand BMP10, Table 13",0.0041 s⁻¹
same,BMP9 binding,[2]; Example 13,substantially reduced binding; also recorded: low or no observable affinity
same,kd,"[2]; ligand BMP9, Table 13",Transient*
same,GDF11 binding,[3]; Example 13,strong binding
same,ka,"[3]; ligand GDF11, Table 13",3.8e+07 M⁻¹ s⁻¹
same,kd,"[3]; ligand GDF11, Table 13",0.00011 s⁻¹
same,GDF8 binding,[4]; Example 13,strong binding
same,ka,"[4]; ligand GDF8, Table 13",390000 M⁻¹ s⁻¹
same,kd,"[4]; ligand GDF8, Table 13",0.00021 s⁻¹
same,activin B binding,[5]; Example 13,enhanced binding to activin B compared with either homodimer
same,ka,"[5]; ligand Activin B, Table 13",7.1e+06 M⁻¹ s⁻¹
same,kd,"[5]; ligand Activin B, Table 13",4e-05 s⁻¹
same,improvement in body weight,[6]; 28 days,+5.1%
same,decrease of right heart hypertrophy,"[6]; day 28, RV/LV+S",39.6%
same,decrease of lung weight,[6]; day 28,19.0%
same,reduction of elevated PAP,[6]; day 28,44.6%
